For the experiment, the target named is actin purified from muscle acetone powder (ground beef); polymerised to F-actin (Bos taurus (ground beef)) (UniProt P68138). The experiment can be described thus: co-sedimentation.

Where “and” joins values, the source holds several entries; their conditions need not be identical. Identical values can stand only once.

In general, Kd refers to the free concentration of one partner at which half of the binding sites on the other are occupied at equilibrium, for simple one-to-one binding. Low readings indicate tighter binding, high ones weaker binding. For the substance “Lfat1 ABD [change], recombinant (from UniProt Q5ZVQ3 138-355) (domain or fragment)”, the Kd is 19.1 µM and 16.3 µM and 63.7 µM.
